Tests used:
[1] = target: the molecule itself; assay: SEC
[2] = target: the molecule itself; assay: native gel or EMSA
[3] = target: the molecule itself; assay: SEC-MALS

B1: human TMC1 (hsTMC1) fused to GFP (natural protein, UniProt Q8TDI8 1-760, looked up)
chain: MSPKKVQIKVEEKEDETEESSSEEEEEVEDKLPRRESLRPKRKRTRDVINEDDPEPEPEDEETRKAREKERRRRLKRGAEEEEIDEEELERLKAELDEKRQIIATVKCKPWKMEKKIEVLKEAKKFVSENEGALGKGKGKRWFAFKMMMAKKWAKFLRDFENFKAACVPWENKIKAIESQFGSSVASYFLFLRWMYGVNMVLFILTFSLIMLPEYLWGLPYGSLPRKTVPRAEEASAANFGVLYDFNGLAQYSVLFYGYYDNKRTIGWMNFRLPLSYFLVGIMCIGYSFLVVLKAMTKNIGDDGGGDDNTFNFSWKVFTSWDYLIGNPETADNKFNSITMNFKEAITEEKAAQVEENVHLIRFLRFLANFFVFLTLGGSGYLIFWAVKRSQEFAQQDPDTLGWWEKNEMNMVMSLLGMFCPTLFDLFAELEDYHPLIALKWLLGRIFALLLGNLYVFILALMDEINNKIEEEKLVKANITLWEANMIKAYNASFSENSTGPPFFVHPADVPRGPCWETMVGQEFVRLTVSDVLTTYVTILIGDFLRACFVRFCNYCWCWDLEYGYPSYTEFDISGNVLALIFNQGMIWMGSFFAPSLPGINILRLHTSMYFQCWAVMCCNVPEARVFKASRSNNFYLGMLLLILFLSTMPVLYMIVSLPPSFDCGPFSGKNRMFEVIGETLEHDFPSWMAKILRQLSNPGLVIAVILVMVLAIYYLNATAKGQKAANLDLKKKMKMQALENKMRNKKMAAARAAAAAGRQ
Question: For B1, which “stoichiometry N” value [1] is on record?
Answer: 2

B2: purified human TMC1 (hsTMC1) reconstituted into amphipols (natural protein, UniProt Q8TDI8 1-760, looked up)
chain: MSPKKVQIKVEEKEDETEESSSEEEEEVEDKLPRRESLRPKRKRTRDVINEDDPEPEPEDEETRKAREKERRRRLKRGAEEEEIDEEELERLKAELDEKRQIIATVKCKPWKMEKKIEVLKEAKKFVSENEGALGKGKGKRWFAFKMMMAKKWAKFLRDFENFKAACVPWENKIKAIESQFGSSVASYFLFLRWMYGVNMVLFILTFSLIMLPEYLWGLPYGSLPRKTVPRAEEASAANFGVLYDFNGLAQYSVLFYGYYDNKRTIGWMNFRLPLSYFLVGIMCIGYSFLVVLKAMTKNIGDDGGGDDNTFNFSWKVFTSWDYLIGNPETADNKFNSITMNFKEAITEEKAAQVEENVHLIRFLRFLANFFVFLTLGGSGYLIFWAVKRSQEFAQQDPDTLGWWEKNEMNMVMSLLGMFCPTLFDLFAELEDYHPLIALKWLLGRIFALLLGNLYVFILALMDEINNKIEEEKLVKANITLWEANMIKAYNASFSENSTGPPFFVHPADVPRGPCWETMVGQEFVRLTVSDVLTTYVTILIGDFLRACFVRFCNYCWCWDLEYGYPSYTEFDISGNVLALIFNQGMIWMGSFFAPSLPGINILRLHTSMYFQCWAVMCCNVPEARVFKASRSNNFYLGMLLLILFLSTMPVLYMIVSLPPSFDCGPFSGKNRMFEVIGETLEHDFPSWMAKILRQLSNPGLVIAVILVMVLAIYYLNATAKGQKAANLDLKKKMKMQALENKMRNKKMAAARAAAAAGRQ
Question: B2 was tested. Which “stoichiometry N” value [2] did it give?
Answer: 2

B3: purified mouse TMC1 (mmTMC1) reconstituted into amphipols (natural protein, UniProt Q8R4P5 1-757, looked up)
chain: MLQIQVEEKEEDTEESSSEEEEDKLPRRESLRPKRKRTRDVINEDDPEPEPEDEETRKAREKERRRRLRRGAEEEEEIDEEELERLKALLDENRQMIATVKCKPWKMEKKIEVLKEAKKFVSENEGALGKGKGKKWFAFKMMMAKKWAKFLRDFENFKAACVPWENKIKAIESQFGSSVASYFLFLRWMYGVNMVLFVLTFSLIMLPEYLWGLPYGSLPRKTVPRAEEASAANFGVLYDFNGLAQYSVLFYGYYDNKRTIGWLNFRLPLSYFLVGIMCIGYSFLVVLKAMTKNIGDDGGGDDNTFNFSWKVFCSWDYLIGNPETADNKFNSITMNFKEAIIEERAAQVEENIHLIRFLRFLANFFVFLTLGASGYLIFWAVKRSQEFAQQDPDTLGWWEKNEMNMVMSLLGMFCPTLFDLFAELEDYHPLIALKWLLGRIFALLLGNLYVFILALMDEINNKIEEEKLVKANITLWEANMIKAYNESLSGLSGNTTGAPFFVHPADVPRGPCWETMVGQEFVRLTVSDVLTTYVTILIGDFLRACFVRFCNYCWCWDLEYGYPSYTEFDISGNVLALIFNQGMIWMGSFFAPSLPGINILRLHTSMYFQCWAVMCCNVPEARVFKASRSNNFYLGMLLLILFLSTMPVLYMIVSLPPSFDCGPFSGKNRMFEVIGETLEHDFPSWMAKILRQLSNPGLVIAVILVMVLTIYYLNATAKGQKAANLDLKKKMKQQALENKMRNKKMAAARAAAAAGGQ
Question: Which “stoichiometry N” value [3] does the source give for B3 here?
Answer: 2

From paper PMC6360533 (Neuron, 2018)
